Measurements published in US20250215071A1, “Novel Mcl-1 inhibitor and combination of Mcl-1 and a BH3 mimetic, such as a Bcl-2 inhibitor” (NETRIS PHARMA, priority 2022, published 2025).

B1: NP137: humanized anti-netrin-1 monoclonal antibody, VH SEQ ID NO: 22, VL SEQ ID NO: 16, human IgG1 (antibody, V domains shown)
VH: QVQLQQSGPGLVKPSQTLSLTCAISGYTFTSYNMHWVRQATGQGLEWMGAIYPGNGDTSYNQKFKGRLTISKDTSKNQVVLTMTNMDPVDTATYYCARGGTGFAYWGQG
VL: DIQMTQSPSSLSASVGDRVTITCKASQSVSNDVAWYQQKPGQAPRLLIYYASNRYTGIPPRFSGSGYGTDFTLTINNIESEDAAYYFCQQDYSSPWTFGQG
modifications: human IgG1 constant region; humanized variant; MISC_FEATURE - CDR according to IGMT

Key:
caspase-3 = experiment: UNC5B-induced caspase-3 activity in HeLa UNC5B cells; format: cell-based, Human; conditions: doxycycline 2 μg/mL; 18 hours
Procedure: Stable Hela cells inducible for UNC5B (HeLa UNC5B) were treated with doxycycline (Dox) at 2 μg/mL, in combination with the indicated doses of the proteasome inhibitors MG132 and bortezomib (BTZ).
Caspase-3 and -9 activity assays were performed as described previously (Paradisi et al., 2013; Paradisi et al., 2009). Briefly, HCT116 and HeLa cells were seeded and treated as for DNA fragmentation assay. Cells were then collected and caspase-3/caspase 9 activity assays were performed using the Caspase-3/Caspase-9 Fluorometric Assay Kit (BioVision, Milpitas, CA, USA), according to the manufacturer's instructions. Caspase activity (activity/min/mg of protein) was calculated from a 1 h kinetic cycle reading on a spectrofluorometer (405 nm/510 nm, Infinite F500, Tecan, Männedorf, Switzerland).

Mcl-1 = Mcl-1 immunohistochemistry on paired biopsies of phase I trial patients (NCT02977195); format: in vivo, human
Procedure: FIG. 7. Netrin-1 interference triggers Mcl-1 degradation in vitro and in vivo. (A,B): Netrin-1 silencing triggers Mcl-1 degradation. Breast cancer MCF7 cells were transfected with scramble (siCTRL) or netrin-1 (siNet) targeting siRNAs. 48 hours after transfection, cells were lysed by scraping and sonication in SDS-containing buffer. Protein levels of Mcl-1, netrin-1, and UNC5B, as well as B-actin and Ku80, used as housekeeping genes, were evaluated by western blot (A). Relative Mcl-1 protein levels, normalized to β-actin or Ku80, are shown in (B) (n=2, *** p<0.001, **** p<0.0001, ordinary two-way ANOVA with Sidak's multiple comparisons test). Activation of endogenous UNC5B upon netrin-1 silencing decreased Mcl-1 protein levels. Values are given as means±SEM. (C,D): Netrin-1 interference degrades Mcl-1 in a syngeneic breast cancer model. Stable EMT6 cells, constitutively over-expressing human Mcl-1, were engrafted in BALB/c mice. Once tumors reached a volume of 100 mm^3, mice were treated with Iso-mAb or NP137 antibodies and sacrificed 8 hours after treatment. Protein levels of Mcl-1 were then evaluated by western blot (C). […] Mcl-1 protein was quantified in paraffin-embedded slices on paired C1D1 and C3D1 biopsies and compared with clinical benefit (stable disease, SD, or progression disease, PD, at 6 weeks). Mcl-1 intensity was assessed in all, PD or SD biopsies (E) (n=6, Wilcoxon test). […]
The NP137 antibody is currently being assessed in several phase I and II clinical trials, in patients with advanced solid tumours. […] Mcl-1 presence was thus analysed by immunohistochemistry.
For histological examination of tumours engrafted in nude mice, ex vivo breast cancer slices, and from human clinical trial, tumours were fixed in 10% buffered formalin and embedded in paraffin. […] Quantification of caspase-3- and Mcl-1-positive cells was performed with HALO software and adapted algorithms cytonuclear v2.0.8 6 (Indica Labs, Albuquerque, NM, USA). MCL1 intensity, has been calculated in percentage over the surface of tumour cells. […]

[1] = human, in vivo; cited from earlier work

Molecule | UNC5B-induced caspase-3 activation (caspase-3) | patient tumours with reduced Mcl-1 levels (Mcl-1; all twelve patients, 14 mg/kg once every two weeks, C3D1 vs C1D1 biopsies) | patients with Mcl-1 decrease (Mcl-1; six patients with progression disease (PD) at 6 weeks) | patients with Mcl-1 decrease (Mcl-1; six patients with stable disease (SD) at 6 weeks) | safety profile [1]
CC(C)C[C@H](NC(=O)[C@H](Cc1ccccc1)NC(=O)c1cnccn1)B(O)O [bortezomib] | suppressed |  |  |  | 
B1 |  | nine out of the twelve | three of the six | six patients with SD showed Mcl-1 decrease | extremely good safety profile
